From patent US20130252901A1 (KIMONELLA VENTURES, published 2013) come the findings set out here.

First the molecules themselves.
T1: Ac-DAEFRHDSGYEVHHQKGGGGC-NH2, immobilized peptide fragment corresponding to the 1-16 region of the amyloid-β … (N-terminal acetyl (Ac); C-terminal amide (NH2); C-terminal cysteine bound to the CM5 chip through a thiol bond)
T1 construct: Synthetic 21-mer; Aβ 1-16 plus GGGG linker and Cys for immobilisation; also called ligand; target ligand
T1 peptide: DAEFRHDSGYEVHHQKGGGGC

B1: Ac-HAEESE-NH2 (peptide)
peptide: Ac-HAEESE-NH2
notes: also called ID; NO; 41
B2: Ac-HAEEGE-NH2 (peptide)
peptide: Ac-HAEEGE-NH2
notes: also called ID; NO; 42
B3: Ac-HAEEAD-NH2 (peptide)
peptide: Ac-HAEEAD-NH2
notes: also called ID; NO; 40
B4: Ac-HAEESD-NH2 (peptide)
peptide: Ac-HAEESD-NH2
notes: also called ID; NO; 39
B5: Ac-HAEEQE-NH2 (peptide)
peptide: Ac-HAEEQE-NH2
notes: also called ID; NO; 43
B6: Ac-KQLGHAEEGE-NH2 (peptide)
peptide: Ac-KQLGHAEEGE-NH2
notes: also called ID; NO; 52
B7: Ac-RNFSHAEESE-NH2 (peptide)
peptide: Ac-RNFSHAEESE-NH2
notes: also called ID; NO; 51
B8: Ac-EERNFSHAEE-NH2 (peptide)
peptide: Ac-EERNFSHAEE-NH2
notes: also called ID; NO; 56
B9: Ac-EEKNIAHAEE-NH2 (peptide)
peptide: Ac-EEKNIAHAEE-NH2
notes: also called ID; NO; 55
B10: Ac-DEKQLGHAEE-NH2 (peptide)
peptide: Ac-DEKQLGHAEE-NH2
notes: also called ID; NO; 57
B11: Ac-RQISHAEEQE-NH2 (peptide)
peptide: Ac-RQISHAEEQE-NH2
notes: also called ID; NO; 53
B12: Ac-KNIAHAEEAD-NH2 (peptide)
peptide: Ac-KNIAHAEEAD-NH2
notes: also called ID; NO; 50
B13: Ac-AADD-NH2 (peptide)
peptide: Ac-AADD-NH2
notes: also called ID; NO; 32
B14: Ac-AADE-NH2 (peptide)
peptide: Ac-AADE-NH2
notes: also called ID; NO; 35
B15: Ac-RAAE-NH2 (peptide)
peptide: Ac-RAAE-NH2
notes: also called ID; NO; 37
B16: Ac-RADA-NH2 (peptide)
peptide: Ac-RADA-NH2
notes: also called ID; NO; 36
B17: Ac-HAEA-NH2 (peptide)
peptide: Ac-HAEA-NH2
notes: also called ID; NO; 30
B18: Ac-AAEE-NH2 (peptide)
peptide: Ac-AAEE-NH2
notes: also called ID; NO; 29
B19: Ac-HAAD-NH2 (peptide)
peptide: Ac-HAAD-NH2
notes: also called ID; NO; 33
B20: Ac-HADA-NH2 (peptide)
peptide: Ac-HADA-NH2
notes: also called ID; NO; 34
B21: Ac-KAAE-NH2 (peptide)
peptide: Ac-KAAE-NH2
notes: also called ID; NO; 38
B22: Ac-HAAE-NH2 (peptide)
peptide: Ac-HAAE-NH2
notes: also called ID; NO; 31
B23: Ac-DDHSLAHAEE-NH2 (peptide)
peptide: Ac-DDHSLAHAEE-NH2
notes: also called ID; NO; 54
B24: Ac-DERQISHAEE-NH2 (peptide)
peptide: Ac-DERQISHAEE-NH2
notes: also called ID; NO; 58
B25: Ac-LAHAEE-NH2 (peptide)
peptide: Ac-LAHAEE-NH2
notes: also called ID; NO; 44
B26: Ac-LGHAEE-NH2 (peptide)
peptide: Ac-LGHAEE-NH2
notes: also called ID; NO; 47
B27: Ac-ISHAEE-NH2 (peptide)
peptide: Ac-ISHAEE-NH2
notes: also called ID; NO; 48
B28: Ac-FSHAEE-NH2 (peptide)
peptide: Ac-FSHAEE-NH2
notes: also called ID; NO; 46
B29: Ac-IAHAEE-NH2 (peptide)
peptide: Ac-IAHAEE-NH2
notes: also called ID; NO; 45
B30: Ac-HSLAHAEESD-NH2 (peptide)
peptide: Ac-HSLAHAEESD-NH2
notes: also called ID; NO; 49
B31: Ac-HAEE-NH2 (peptide)
peptide: Ac-HAEE-NH2
notes: also called ID; NO; 19
B32: Ac-DDAK-NH2 (peptide)
peptide: Ac-DDAK-NH2
notes: also called ID; NO
B33: Ac-DEAR-NH2 (peptide)
peptide: Ac-DEAR-NH2
notes: also called ID; NO; 12
B34: Ac-RAEE-NH2 (peptide)
peptide: Ac-RAEE-NH2
notes: also called ID; NO; 23
B35: Ac-KAED-NH2 (peptide)
peptide: Ac-KAED-NH2
notes: also called ID; NO
B36: Ac-RADD-NH2 (peptide)
peptide: Ac-RADD-NH2
notes: also called ID; NO
B37: Ac-HADD-NH2 (peptide)
peptide: Ac-HADD-NH2
notes: also called ID; NO
B38: Ac-KADE-NH2 (peptide)
peptide: Ac-KADE-NH2
notes: also called ID; NO; 15

A word on the Kd: it is the constant that tells how readily two partners part at equilibrium. Low values mean tighter binding, high ones weaker binding. Broadly, the koff is the rate constant with which the complex falls apart. A higher koff goes with fast dissociation.

Sequence of complete β peptide 1-40, marked by a fluorescent marker (P05067 672-711 limits assumed): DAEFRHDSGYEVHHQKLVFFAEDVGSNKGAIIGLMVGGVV

One experiment concerns the target T1, Ac-DAEFRHDSGYEVHHQKGGGGC-NH2, …. As to the kind of experiment: SPR, BIACORE 3000, procedure of Example 1. In general terms: Surface plasmon resonance follows binding to a sensor surface in real time, without labels.
Turning to B1, the binding result is “no binding (tested: Kd from 10^-3 to 10^-4 M)”.

For the molecule B2, the binding result is on record as “no binding (tested: Kd from 10^-3 to 10^-4 M)”.

In the case of B3, the binding result is given as “no binding (tested: Kd from 10^-3 to 10^-4 M)”.

B4: the binding result is “no binding (tested: Kd from 10^-3 to 10^-4 M)”.

In the case of B5, the binding result is recorded as “no binding (tested: Kd from 10^-3 to 10^-4 M)”.

As to B6, the binding result is listed as “no binding (tested: Kd from 10^-3 to 10^-4 M)”.

For B7, the binding result was “no binding (tested: Kd from 10^-3 to 10^-4 M)”.

Turning to B8, the binding result is given as “no binding (tested: Kd from 10^-3 to 10^-4 M)”.

B9: the binding result was “no binding (tested: Kd from 10^-3 to 10^-4 M)”.

Regarding B10, the binding result is reported as “no binding (tested: Kd from 10^-3 to 10^-4 M)”.

B11: the binding result was “no binding (tested: Kd from 10^-3 to 10^-4 M)”.

With B12, the binding result was “no binding (tested: Kd from 10^-3 to 10^-4 M)”.

For B13, the binding result was “no binding (tested: Kd from 10^-3 to 10^-4 M)”.

As for B14, the binding result was “no binding (tested: Kd from 10^-3 to 10^-4 M)”.

On to B15, for which the binding result was “no binding (tested: Kd from 10^-3 to 10^-4 M)”.

For B16, the binding result is “no binding (tested: Kd from 10^-3 to 10^-4 M)”.

B17: the binding result is “no binding (tested: Kd from 10^-3 to 10^-4 M)”.

On to B18, for which the binding result is on record as “no binding (tested: Kd from 10^-3 to 10^-4 M)”.

For the molecule B19, the binding result is “no binding (tested: Kd from 10^-3 to 10^-4 M)”.

On to B20, for which the binding result is recorded as “no binding (tested: Kd from 10^-3 to 10^-4 M)”.

Take B21: the binding result is recorded as “no binding (tested: Kd from 10^-3 to 10^-4 M)”.

Consider B22, for which the binding result was “no binding (tested: Kd from 10^-3 to 10^-4 M)”.

On to B23, for which the binding result was “no binding (tested: Kd from 10^-3 to 10^-4 M)”.

For the molecule B24, the binding result is “no binding (tested: Kd from 10^-3 to 10^-4 M)”.

For the molecule B25, the binding result is “no binding (tested: Kd from 10^-3 to 10^-4 M)”.

As to B26, the binding result is given as “no binding (tested: Kd from 10^-3 to 10^-4 M)”.

Consider B27, for which the binding result was “no binding (tested: Kd from 10^-3 to 10^-4 M)”.

In the case of B28, the binding result was “no binding (tested: Kd from 10^-3 to 10^-4 M)”.

B29: the binding result was “no binding (tested: Kd from 10^-3 to 10^-4 M)”.

Take B30: the binding result is “no binding (tested: Kd from 10^-3 to 10^-4 M)”.

Another experiment has the same target. As to the kind of experiment: SPR, BIACORE 3000, ligand immobilised on CM5 chip by thiol bond, peptide as analyte 0-25 µM, response at equilibrium; Example 1, BIACORE 3000, response at equilibrium. The protocol: The SPR spectroscopy experiments were conducted with the BIACORE 3000 apparatus. The reagents for immobilizing the amyloid-β peptide fragment (EDC, NHS, PDEA and cysteine) were bought from GE Healthcare (USA). The buffer used for immobilizing the peptide ligand by formation of thiol bonds was 10 mM sodium acetate at pH 4.5. The regeneration buffer was an HBS buffer containing a medium with 10 mM HEPES and 3 mM EDTA, 0.005% of surfactant P20 and 150 mM NaCl at pH 7.4. […] was a HBS buffer at pH 7.4 and a HEPES buffer at pH 6.8, 50 mM, with 100 μM of Zn(II) ions for the reactive tetrapeptide Ac-HAEE-NH₂. All the buffers were filtered before use.
The peptide fragment of the ligand was: Ac-[…]-NH₂, corresponding to the sequence SEQ. ID. NO.26. This peptide with 21 amino acids contains the 16 amino acids of the N-terminal end of the binding domain of the amyloid-β, i.e. […] (SEQ. ID. NO.25), followed by 4 glycine amino acids and a cysteine C-Terminal end. […]
The reagent Ac-HAEE-NH₂ was prepared by dilution with 7 concentrations, i.e. 0, 2, 5, 10, 15, 20 and 25 μM, and injected in a multichannel mode (20 μL QUICKINJECT, 5 μL/min). […] Next, the dissociation constant Kd was calculated in a known way from curves established for the response at equilibrium (Req) versus the concentration (M) in the BIA evaluation 4.1 program.
In the case of B31, binding was characterised by a dissociation constant (Kd) of 22 nM.

The target is the same in a further experiment. As to the kind of experiment: SPR, BIACORE T100, ligand immobilised on CM5 chip, peptide as analyte 50-2,000 µM, no zinc, kinetic fit.
Regarding B32, the Kd amounted to 1.37 mM and the koff worked out at 0.0062 s⁻¹.

B33: the Kd stood at 1.98 mM and the koff was 0.00709 s⁻¹.

Molecule B34 had a Kd of 7.7 mM and a koff of 0.0112 s⁻¹.

Molecule B35 returned a Kd of 3.3 mM and a koff of 0.019 s⁻¹.

Take B31: the affinity, expressed as Kd, was 0.09 mM and the koff was found to be 3.5e-05 s⁻¹.

As to B36, the Kd turned out to be 0.013 mM and the koff came out at 0.00024 s⁻¹.

B37: the affinity, expressed as Kd, was 3.25 mM and the koff amounted to 0.0104 s⁻¹.

For B38, the Kd was found to be 4.5 mM and the koff worked out at 0.0096 s⁻¹.

The next experiment has as its target complete β peptide 1-40, marked by a fluorescent marker (UniProt P05067 672-711, fluorescent marker, kind and position not stated). As to the kind of experiment: cell-based or functional assay.
B31: the “inhibition of the aggregation of the Aβ peptide (fluorescence of marked Aβ 1-40 bound to the wells, SYNTHALOID SCREENING PLATE kit), IC50” value worked out at 0.02 mM.

Consider B36, for which the “inhibition of the aggregation of the Aβ peptide (fluorescence of marked Aβ 1-40 bound to the wells, SYNTHALOID SCREENING PLATE kit), IC50” value is 0.02 mM.
